Results published in US20240376156A1, “MULTIPLE DE NOVO DESIGNED PROTEIN BINDING PROTEINS” (UNIVERSITY OF WASHINGTON, priority 2021, published 2024).
Like-named read-outs stand apart in the source and are kept apart here.

Key:
[1] = biological target: T1, IL-7Rα (Homo sapiens, UniProt P16871); assay: Biolayer interferometry binding to IL-7Rα
T1 construct: IL-7Rα (residues 37-231, Uniprot ID P16871); IgK signal peptide (N); made in house; host or cells: mammalian cells
T1 sequence (P16871 37-231): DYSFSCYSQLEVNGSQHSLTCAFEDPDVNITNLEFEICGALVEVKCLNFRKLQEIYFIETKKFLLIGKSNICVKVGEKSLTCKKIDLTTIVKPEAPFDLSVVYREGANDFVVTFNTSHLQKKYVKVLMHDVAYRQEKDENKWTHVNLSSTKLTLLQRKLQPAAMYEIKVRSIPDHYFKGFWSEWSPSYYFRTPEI

[2] = Circular dichroism wavelength scans and temperature melts (Tm); assay type: physicochemical
[3] = biological target: T2, EGFR ectodomain (residues 25-525) (human, UniProt P00533 25-525); assay: BLI (Octet); biotinylated target on streptavidin sensors, miniprotein as analyte
T2 construct: also called EGER; Epidermal growth factor receptor

[4] = biological target: T3, FGFR2 ectodomain (residues 147-366) with C-terminal TEV/His/AviTag (human, UniProt P21802 147-366); assay: biolayer interferometry
T3 construct: range 147-366; also called Fibroblast growth factor receptor 2

[5] = biological target: T4, FGFR2 ectodomain (residues 147-366) (human, UniProt P21802 147-366); assay: BLI (Octet); biotinylated target on streptavidin sensors, miniprotein as analyte
T4 construct: range 147-366; also called FGER2; Fibroblast growth factor receptor 2

[6] = biological target: VirB8-like protein from Rickettsia typhi (Rickettsia typhi); assay: as above
[7] = biological target: VirB8; assay type: binding, Rickettsia typhi; conditions: read-out: Octet kD
[8] = biological target: Human TrkA ECD (residues 36-382) with C-terminal BAP tag and 6xHis tag (human, UniProt P04629 36-382); assay: biolayer interferometry
[9] = biological target: human TrkA ECD (residues 36-382) (human, UniProt P04629 36-382); assay: BLI (Octet); biotinylated target on streptavidin sensors, miniprotein as analyte
[10] = biological target: T5, InsulinR ectodomain (residues 28-953) (human, UniProt P06213 28-953); assay: BLI (Octet); miniprotein immobilized on AR2G sensors, insulin receptor as analyte
T5 construct: range 28-953; also called IR; Insulin receptor

[11] = biological target: Influenza A H3 hemagglutinin (A/Hong Kong/1/1968) ectodomain (Influenza A virus (A/Hong Kong/1/1968), UniProt Q91MA7 17-530); assay: BLI (Octet); biotinylated target on streptavidin sensors, miniprotein as analyte
[12] = biological target: T6, Influenza A H1 hemagglutinin (A/Puerto Rico/8/1934), ectodomain (Influenza A virus (A/Puerto Rico/8/1934), UniProt P03452 18-528); assay: method not named in the sentence (FIG. 7b)
T6 construct: extracellular domain

[13] = biological target: T7, InsulinR (Homo sapiens, UniProt P06213); assay: Biolayer interferometry binding to InsulinR (miniprotein on AR2G biosensor, receptor as analyte)
T7 construct: InsulinR (residues ID 28-953, Uniprot ID P06213); IgK signal peptide (N); TEV cleavage site (C); 6-His-tag (C); AviTag (C); made in house; host or cells: mammalian cells

[14] = biological target: IL-7Rα ectodomain (residues 37-231) (human, UniProt P16871 37-231); assay: BLI (Octet); biotinylated target on streptavidin sensors, miniprotein as analyte
[15] = biological target: T8, TGF-β (Acro Biosystems Cat #TG1-H8217) (human, UniProt P01137 279-390); assay: as above
T8 construct: also called TGFb; Transforming growth factor beta

[16] = biological target: T9, Biotinylated CD3 protein (Abcam Cat #ab205994) (human, UniProt P04234 22-105); assay: as above
T9 construct: also called CD3δ; CD3 delta chain

[17] = biological target: T10, PDGFR ectodomain (residues 33-314) (human, UniProt P09619 33-314); assay: as above
T10 construct: range 33-314; also called Platelet-derived growth factor receptor

[18] = biological target: T11, Tie2 ectodomain (residues 23-445) (human, UniProt Q02763 23-445); assay: BLI (Octet); biotinylated target on streptavidin sensors, MBP-tagged miniprotein as analyte
T11 construct: range 23-445; also called Angiopoietin-1 receptor

[19] = biological target: T12, Tie2 (Homo sapiens, UniProt Q02763); assay: Biolayer interferometry binding to Tie2 (MBP-tagged miniprotein as analyte)
T12 construct: Tie2 (residues 23-445, Uniprot ID Q02763); IgK signal peptide (N); made in house; host or cells: mammalian cells

[20] = biological target: T13, IGF1R ectodomain (residues 31-930) (human, UniProt P08069 31-930); assay: BLI (Octet); biotinylated target on streptavidin sensors, MBP-tagged miniprotein as analyte
T13 construct: range 31-930; also called IGFIR; Insulin-like growth factor 1 receptor

[21] = biological target: T14, IGF1R (Homo sapiens, UniProt P08069); assay: Biolayer interferometry binding to IGF1R (MBP-tagged miniprotein as analyte)
T14 construct: IGF1R (residues 31-930, Uniprot ID P08069); IgK signal peptide (N); made in house; host or cells: mammalian cells

[22] = tested on: signaling through FGFR2; assay: Inhibition of native agonist signaling through FGFR2 on cells in culture; assay type: cell-based; conditions: data not shown
[23] = biological target: T15, FGFR2 (Homo sapiens, UniProt P21802); assay: Biolayer interferometry binding to FGFR2
T15 construct: FGFR2 (residues 147-366, Uniprot ID P21802); IgK signal peptide (N); made in house; host or cells: mammalian cells
T15 sequence (P21802 147-366): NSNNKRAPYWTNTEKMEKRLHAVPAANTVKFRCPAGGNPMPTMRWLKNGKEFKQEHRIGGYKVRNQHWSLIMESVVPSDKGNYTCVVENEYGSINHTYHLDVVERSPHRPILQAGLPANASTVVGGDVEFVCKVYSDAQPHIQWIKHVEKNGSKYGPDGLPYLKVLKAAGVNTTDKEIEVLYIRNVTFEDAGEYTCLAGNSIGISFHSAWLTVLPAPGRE

T12 sequence (Q02763 23-445): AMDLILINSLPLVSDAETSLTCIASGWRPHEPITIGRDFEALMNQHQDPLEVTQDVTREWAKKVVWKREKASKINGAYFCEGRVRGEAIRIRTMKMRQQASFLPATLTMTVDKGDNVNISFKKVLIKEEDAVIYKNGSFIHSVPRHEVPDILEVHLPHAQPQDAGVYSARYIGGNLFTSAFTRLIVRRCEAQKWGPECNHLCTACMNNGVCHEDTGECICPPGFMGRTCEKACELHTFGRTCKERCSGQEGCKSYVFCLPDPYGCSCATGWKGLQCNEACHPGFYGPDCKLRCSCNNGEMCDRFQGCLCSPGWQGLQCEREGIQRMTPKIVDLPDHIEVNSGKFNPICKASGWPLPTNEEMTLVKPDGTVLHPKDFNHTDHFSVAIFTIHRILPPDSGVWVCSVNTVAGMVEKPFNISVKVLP
T9 sequence (P04234 22-105 limits assumed): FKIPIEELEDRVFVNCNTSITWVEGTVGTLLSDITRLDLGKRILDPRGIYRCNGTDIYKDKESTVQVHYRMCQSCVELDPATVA
T11 sequence (Q02763 other isoform, or with tags, fused parts or gaps limits assumed): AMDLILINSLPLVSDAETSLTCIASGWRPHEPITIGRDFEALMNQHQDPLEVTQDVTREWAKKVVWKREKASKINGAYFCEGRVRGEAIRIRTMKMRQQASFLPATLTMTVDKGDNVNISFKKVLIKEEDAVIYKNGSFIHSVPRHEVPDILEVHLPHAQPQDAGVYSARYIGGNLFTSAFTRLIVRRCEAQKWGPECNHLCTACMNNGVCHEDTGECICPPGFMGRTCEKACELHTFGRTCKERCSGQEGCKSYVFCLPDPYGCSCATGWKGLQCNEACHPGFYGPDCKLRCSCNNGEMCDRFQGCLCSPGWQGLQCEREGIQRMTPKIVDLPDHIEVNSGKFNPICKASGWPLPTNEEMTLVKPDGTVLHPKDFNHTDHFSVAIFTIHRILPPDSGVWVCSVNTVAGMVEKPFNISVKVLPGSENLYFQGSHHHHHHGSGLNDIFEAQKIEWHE
T10 sequence (P09619 other isoform, or with tags, fused parts or gaps limits assumed): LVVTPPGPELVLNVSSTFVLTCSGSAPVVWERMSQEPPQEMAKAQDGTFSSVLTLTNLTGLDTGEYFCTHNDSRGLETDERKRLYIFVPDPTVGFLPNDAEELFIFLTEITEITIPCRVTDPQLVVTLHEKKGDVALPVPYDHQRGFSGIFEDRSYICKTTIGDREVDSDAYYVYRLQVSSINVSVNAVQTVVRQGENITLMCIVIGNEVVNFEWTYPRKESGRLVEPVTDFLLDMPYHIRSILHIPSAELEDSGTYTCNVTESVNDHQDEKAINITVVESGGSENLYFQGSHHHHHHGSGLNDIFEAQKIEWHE
T4 sequence (P21802 other isoform, or with tags, fused parts or gaps limits assumed, form in doubt): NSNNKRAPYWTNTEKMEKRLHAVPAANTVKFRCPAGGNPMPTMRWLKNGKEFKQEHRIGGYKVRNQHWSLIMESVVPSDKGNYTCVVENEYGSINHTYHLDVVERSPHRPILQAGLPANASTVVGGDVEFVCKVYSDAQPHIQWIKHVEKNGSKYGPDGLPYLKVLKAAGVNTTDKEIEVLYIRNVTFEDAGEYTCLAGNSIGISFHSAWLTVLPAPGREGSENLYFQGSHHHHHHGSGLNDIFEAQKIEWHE
T3 sequence (P21802 other isoform, or with tags, fused parts or gaps limits assumed, form in doubt): as above
T8 sequence (P01137 279-390 limits assumed): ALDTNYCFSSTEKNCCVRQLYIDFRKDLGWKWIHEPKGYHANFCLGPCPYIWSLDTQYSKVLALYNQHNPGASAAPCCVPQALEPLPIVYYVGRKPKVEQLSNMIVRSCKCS
Human TrkA ECD (residues 36-382) with C-terminal BAP tag and 6xHis tag, sequence (P04629 other isoform, or with tags, fused parts or gaps limits assumed): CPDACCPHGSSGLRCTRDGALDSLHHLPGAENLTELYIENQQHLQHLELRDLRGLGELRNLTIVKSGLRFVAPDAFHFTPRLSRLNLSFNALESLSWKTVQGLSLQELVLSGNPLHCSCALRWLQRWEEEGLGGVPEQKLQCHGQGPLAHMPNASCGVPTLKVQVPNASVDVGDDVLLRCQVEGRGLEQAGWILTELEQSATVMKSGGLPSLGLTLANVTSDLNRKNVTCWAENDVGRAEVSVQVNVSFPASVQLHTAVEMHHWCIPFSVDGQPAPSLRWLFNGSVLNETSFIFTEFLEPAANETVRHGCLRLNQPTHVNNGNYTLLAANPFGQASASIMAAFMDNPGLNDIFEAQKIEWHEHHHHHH
IL-7Rα ectodomain (residues 37-231), sequence (P16871 other isoform, or with tags, fused parts or gaps limits assumed): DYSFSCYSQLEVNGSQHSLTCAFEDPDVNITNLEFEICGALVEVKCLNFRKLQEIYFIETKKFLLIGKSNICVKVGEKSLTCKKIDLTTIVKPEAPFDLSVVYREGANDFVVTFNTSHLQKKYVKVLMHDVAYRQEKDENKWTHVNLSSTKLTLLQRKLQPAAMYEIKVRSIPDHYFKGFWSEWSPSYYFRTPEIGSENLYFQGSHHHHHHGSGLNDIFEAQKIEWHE
human TrkA ECD (residues 36-382), sequence (P04629 other isoform, or with tags, fused parts or gaps limits assumed): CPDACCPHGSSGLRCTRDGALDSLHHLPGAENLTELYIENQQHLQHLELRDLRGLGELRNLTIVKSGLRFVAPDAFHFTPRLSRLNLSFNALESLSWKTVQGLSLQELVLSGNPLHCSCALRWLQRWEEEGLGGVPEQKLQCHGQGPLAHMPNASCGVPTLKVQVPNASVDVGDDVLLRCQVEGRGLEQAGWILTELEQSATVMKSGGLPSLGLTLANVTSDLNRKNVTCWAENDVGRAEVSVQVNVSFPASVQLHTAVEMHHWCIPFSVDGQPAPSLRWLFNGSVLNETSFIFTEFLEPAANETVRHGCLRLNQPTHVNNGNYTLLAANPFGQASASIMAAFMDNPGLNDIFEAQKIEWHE

IL-7Rα_mb (SVIEKLRKLEKQARKQGDEVLVMLARMVLEYLEKGWVSEEDADESADRIEEVLKK)
Kd ([1]; target IL-7Rα, optimized sequence, read-out: Octet kD): 0.312 nM | TM ([2]; optimized sequence): >95 °C

IL-7Rα binder: de novo miniprotein binder for IL-7Rα targeting the IL-7 binding site; probably IL7Ra_mb2, SEQ ID NO: 760 (SVKKKVRKVEKKARKAGDELAVLLARRVLEALEKGLVSEEDADESADRIEEALKK)
affinity for IL-7Rα (in words) ([1]; targeting the IL-7 binding site): picomolar affinity

B1: EGFRc_mb (designed binder)
chain: MSHHHHHHHHSENLYFQSGGGSLDEAKKLLQEAEKLARKLNDRMELAYVEFLKHILETAKKQNDKRTIESVRDMARDALEELQS
Kd [3]: 6.8 nM | TM ([2]; optimized sequence): 71.2 °C

B2: FGFR2_mb (optimized FGFR2 binder, purified from E. coli) (designed binder)
chain: MSHHHHHHHHSENLYFQSGGGDRRKEMDKVYRTAFKRITSTPDKEKRKEVVKEATEQLRRIAKDEEEKKKAAYMILFLKTLG
notes: also called FGFR2_mb3
Kd [4]: ≤ 1 nM

B3: FGFR2_mb (designed binder)
chain: MSHHHHHHHHSENLYFQSGGGDRRKEMDKVYRTAFKRITSTPDKEKRKEVVKEATEQLRRIAKDEEEKKKAAYMILFLKTLG
Kd [5]: 0.543 nM | TM ([2]; optimized sequence): 71.1 ºC ° C.

B4: VirB8_mb (designed binder)
chain: MSHHHHHHHHSENLYFQSGGGNAEEITEKATLVGIEAWLLAKDEEQKKKVRTLNRQVKKLLQQNDLDQAKRVLDQLKSVLEDLKS
Kd [6]: 0.5 nM | TM [2]: 66.2 °C | Kd [7]: 0.5 nM

B5: TrkA_mb (optimized TrkA binder, purified from E. coli) (designed binder)
chain: MSHHHHHHHHSENLYFQSGGGRDEIKERIFKAVVRAIVTGNPEQLKEAKKLLEKLKKLGRLDQDAKKFEKAIRQVEKRLRS
Kd [8]: ≤ 1 nM

B6: TrkA_mb (designed binder)
chain: MSHHHHHHHHSENLYFQSGGGRDEIKERIFKAVVRAIVTGNPEQLKEAKKLLEKLKKLGRLDQDAKKFEKAIRQVEKRLRS
Kd [9]: 1.4 nM

B7: InsulinR_mb (designed binder)
chain: MSHHHHHHHHSENLYFQSGGGDEELMELVYEAVEKNDPELLFEAWMELASLLDETGDPKIEEALGLLQQVDGGNPDAGRRIKELFK
TM ([2]; optimized sequence): 65 °C ° C. | Kd [10]: 270 nM

B8: H3_mb (designed binder)
chain: MSHHHHHHHHSENLYFQSGGGSQHEKFLEWMLRKIEEAIKRGNKISAEFLINLAKNFIHVLGDDEIRRRLERLERQLH
Kd [11]: 320 nM | TM [2]: >95 °C

B9: H3_mb (optimized H3 hemagglutinin binder, purified from E. coli) (designed binder)
chain: MSHHHHHHHHSENLYFQSGGGSQHEKFLEWMLRKIEEAIKRGNKISAEFLINLAKNFIHVLGDDEIRRRLERLERQLH
binding result [12]: binds

B10: InsulinR binder: optimized de novo miniprotein binder to insulin receptor; probably InsulinR_mb5, SEQ ID NO: 788 (protein)
chain: DEELLELVYEAVEKNDPRLLFEAWMILASLLDKTGDPKIEELLRLLQLVDRGDPDARRRIKELFK
binding affinity for InsulinR (in words) [13]: weak

B11: EGFRn_mb (designed binder)
chain: MSHHHHHHHHSENLYFQSGGGDHWEEVFRWALEHLQEATQQNDPQKAKKILEEAHKWLRRELSEEEARAVVRWLKQLVDRELS
Kd [3]: 1.7 nM | TM ([2]; optimized sequence): >95 °C

B12: IL-7Rα_mb (designed binder)
chain: MSHHHHHHHHSENLYFQSGGGSVIEKLRKLEKQARKQGDEVLVMLARMVLEYLEKGWVSEEDADESADRIEEVLKK
Kd [14]: 0.312 nM

B13: TGF-β_mb (designed binder)
chain: MSHHHHHHHHSENLYFQSGGGHCTIEVVGVDPEKVEAIAAAYGAEVCEKDGKFEIHLDDPHSAESAAVAISVLTNRPVRLQC
Kd [15]: 270 nM | TM ([2]; optimized sequence): >95 °C

B14: CD3δ_mb (designed binder)
chain: MSHHHHHHHHSENLYFQSGGGNHIACEIHNPEAAKEIAKVANVRRVYFIKQPGNRYFVLLKNADPEGVKKVRSKYNVRCVIRE
Kd [16]: 612 nM | TM ([2]; optimized sequence): >95 °C

B15: PDGFR_mb (designed binder)
chain: MSHHHHHHHHSENLYFQSGGGDDERLATLAFRALIKRAGVKNLDVKVTNGKVRVTITGRDQASFKALQLVFALARRLGLQVQIDTR
Kd [17]: 53 nM | TM ([2]; optimized sequence): >95 °C

B16: MBP-tagged Tie2_mb (designed binder)
chain: SIDEELERLLEEAGVDPELIDDLYAVIYQLYIRGLSDKDVLRFLLENLERDGTPLRRVVEELLKR
notes: not shown: N-terminal 6 His-tag and MBP tag
Kd [18]: 584 nM

B17: Tie2 binder: optimized de novo miniprotein binder to Tie2; probably Tie2_mb2, SEQ ID NO: 1451 (protein)
chain: SIDEELERLLEEAGVDPELIDDLYAVIYQLYIRGLSDKDVLRFLLENLERDGTPLRRVVEELLKR
binding affinity for Tie2 (in words) [19]: weak and low

B18: Tie2_mb (protein)
chain: SIDEELERLLEEAGVDPELIDDLYAVIYQLYIRGLSDKDVLRFLLENLERDGTPLRRVVEELLKR
modifications: left off: large carriers
TM ([2]; optimized sequence): >95 °C

B19: MBP-tagged IGF1R_mb (designed binder)
chain: STRNAEFIMLLLELCVKSKNDPQVQEYVKKVKKQVERLVGNGDEKKAEEVARKALEYCADG
notes: as for B16
Kd [20]: 860 nM | TM ([2]; optimized sequence): >95 °C | binding affinity for IGF1R (in words) [21]: weak and low

B20: FGFR2 binder: optimized de novo miniprotein binder to FGFR2; probably SEQ ID NO: 144 (protein)
chain: DRRKEMDKVYRTAFKRITSTPDKEKRKEVVKEATEQLRRIAKDEEEKKKAAYMILFLKTLG
inhibition of signaling through FGFR2 by the native agonist [22]: strong inhibition of signaling | affinity for FGFR2 (in words) [23]: picomolar
